Measured values published in patent publication US20210130452A1 (Merck KGaA, published 2021).
One block for each binder: values may come before it.

Assays:
human IL-17A [1] = molecular target: T1, human IL-17A (human, UniProt Q16552 24-155, biotinylated with Sulfo-NHS-LC-Biotin in the AlphaScreen assays only); assay: SPR Biacore, hIL-17A on chip; periplasmic extract (*); NB = no binding
T1 construct: also called hIL-17A; recombinant human IL-17A
Experimental: (§1) Off-rates of the periplasmic extracts containing anti-IL-17 Nanobodies were measured by Surface Plasmon Resonance (SPR) using a Biacore T100 instrument. […] Periplasmic extracts containing IL-17 neutralizing Nanobodies were injected for 2 minutes at a flow rate of 45 μl/min to allow binding to chip-bound antigen. Next, binding buffer without periplasmic extracts was sent over the chip at the same flow rate to allow spontaneous dissociation of bound Nanobody. From the sensorgrams obtained for the different periplasmic extracts koff-values (k₄) were calculated.

human IL-17F [2] = molecular target: T2, human IL-17F (human, UniProt Q96PD4 31-163, biotinylated with Sulfo-NHS-LC-Biotin in the AlphaScreen assays only); assay: AlphaScreen competition, hIL-17F - IL-17RC-Fc
T2 construct: also called hIL-17F; recombinant human IL-17F
T2 sequence: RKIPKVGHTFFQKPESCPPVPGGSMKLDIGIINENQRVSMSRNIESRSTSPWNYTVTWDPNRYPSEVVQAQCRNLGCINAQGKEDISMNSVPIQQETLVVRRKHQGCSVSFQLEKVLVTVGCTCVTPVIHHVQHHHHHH
Experimental: (§2) To this mixture, the IL-17RA or IL-17RC Fc-fusions, Acceptor beads and the streptavidin Donor beads were added and further incubated for 1 hour at RT.

human IL-17F [3] = molecular target: T2, human IL-17F; assay: AlphaScreen competition, hIL-17F - IL-17RA-Fc
Experimental: as §2

[4] = molecular target: T3, human IL-17A/F heterodimer (human, UniProt Q16552 24-155; Q96PD4 31-163, limits assumed, biotinylated with Sulfo-NHS-LC-Biotin in the AlphaScreen assays only); assay: AlphaScreen competition, hIL-17A/F - IL-17RC-Fc
T3 construct: also called hIL-17A/F
Target sequence in this assay (Q16552 24-155 limits assumed, chain 1 of 2, one chain of several): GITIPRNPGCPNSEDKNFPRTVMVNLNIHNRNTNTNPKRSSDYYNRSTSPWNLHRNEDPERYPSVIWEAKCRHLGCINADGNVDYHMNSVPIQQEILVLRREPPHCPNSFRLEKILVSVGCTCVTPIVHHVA
Experimental: as §2

human IL-17F [5] = molecular target: T2, human IL-17F; assay: cell-based or functional assay
human IL-17F [6] = molecular target: T2, human IL-17F; assay: SPR Biacore, hIL-17F on chip; purified protein
Experimental: as §1

[7] = molecular target: T3, human IL-17A/F heterodimer; assay: SPR Biacore, hIL-17A/F on chip; purified protein
Target sequence in this assay (Q16552 24-155 limits assumed, chain 1 of 2, one chain of several): as above

[8] = molecular target: T3, human IL-17A/F heterodimer; assay: AlphaScreen competition, hIL-17A/F - IL-17RA-Fc
Target sequence in this assay (Q16552 24-155 limits assumed, one chain of several): as the sequence (Q16552 24-155 limits assumed, chain 1 of 2, one chain of several) above
Experimental: as §2

[9] = molecular target: T3, human IL-17A/F heterodimer; assay: cell-based or functional assay
Target sequence in this assay (Q16552 24-155 limits assumed, chain 1 of 2, one chain of several): as above

human IL-17F [10] = molecular target: T4, human IL-17F (human, UniProt Q96PD4 31-163); assay: AlphaScreen IL-17F-IL-17RC; vs IL17MS16A04
T4 construct: made in Hek293 cells (GenBank AF384857); also called hIL-17F; hIL17F
T4 sequence: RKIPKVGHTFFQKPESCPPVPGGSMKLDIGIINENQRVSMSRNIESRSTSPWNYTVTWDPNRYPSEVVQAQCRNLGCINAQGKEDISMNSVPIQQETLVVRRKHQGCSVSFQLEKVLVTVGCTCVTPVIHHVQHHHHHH

human IL-17F [11] = molecular target: T4, human IL-17F; assay: SPR (Biacore) off-rate
[12] = molecular target: T5, human IL-17A/F heterodimer (human, UniProt Q16552 24-155; Q96PD4 31-163, limits assumed); assay: SPR (Biacore) off-rate
T5 construct: bought, made in E. coli (R&D Systems 5194-IL/CF); also called hIL-17A/F; hIL17A/F
T5 sequence (Q16552 24-155 limits assumed, chain 1 of 2, one chain of several): as the sequence (Q16552 24-155 limits assumed, chain 1 of 2, one chain of several) above

[13] = molecular target: T6, human IL-17A/F heterodimer (human, UniProt Q16552 24-155; Q96PD4 31-163, limits assumed); assay: SPR
T6 construct: produced in E. coli, bought from R&D Systems (Cat 5194-IL/CF); also called hIL-17A/F
T6 sequence (Q16552 24-155 limits assumed, chain 1 of 2, one chain of several): as the sequence (Q16552 24-155 limits assumed, chain 1 of 2, one chain of several) above

human IL-17A [14] = molecular target: T7, human IL-17A (human, UniProt Q16552 24-155); assay: SPR
T7 construct: secreted form (GenBank U32659) expressed in Hek293 with C-terminal 6-His; also called hIL-17A; IL-17A-6HIS

human IL-17A [15] = molecular target: T7, human IL-17A; assay: AlphaScreen IL-17A-IL-17RA, average

T1 sequence (Q16552 other isoform, or with tags, fused parts or gaps): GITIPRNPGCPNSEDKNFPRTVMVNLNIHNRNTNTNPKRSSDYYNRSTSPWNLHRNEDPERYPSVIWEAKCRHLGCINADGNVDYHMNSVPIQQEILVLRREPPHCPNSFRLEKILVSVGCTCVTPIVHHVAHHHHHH
T7 sequence (Q16552 other isoform, or with tags, fused parts or gaps): as above

binding result (human IL-17A [1]): no binding
IC50 (human IL-17F [2]): 1.3 nM
IC50 (human IL-17F [3]): 3.84 nM
IC50 [4]: 19.7 nM
IL-17F-induced IL-6 production in HT-1080 cells, Emax (human IL-17F [5]): 62%
IL-17F-induced IL-6 production in HT-1080 cells, IC50 (human IL-17F [5]): 206 nM
koff (human IL-17F [6]): 0.048 s⁻¹
koff [7]: 0.0079 s⁻¹
B1: 08A08 (VHH)
VHH: EVQLVESGGGLVQAGGSLRLSCAASGRTFRPYRMGWFRRAPGKAREFVTLISWSSGRTSYADSVKGRFTISRDSAKNAVYLQMDNLKPEDTAVYFCAVDLSGDAVYDSWGQGTQVTVSS
notes: Class 3 Nanobody (anti-IL-17F); not shown: c-myc, His6 tag

binding result (human IL-17A [1]): no binding
IC50 (human IL-17F [2]): 0.612 nM
IC50 (human IL-17F [3]): 1.84 nM
IC50 [4]: 33.2 nM
IC50 [8]: > 250 nM
IL-17F-induced IL-6 production in HT-1080 cells, Emax (human IL-17F [5]): 91%
IL-17F-induced IL-6 production in HT-1080 cells, IC50 (human IL-17F [5]): 105 nM
IL-17A/F-induced IL-6 production in HT-1080 cells, Emax [9]: 41.5%
IL-17A/F-induced IL-6 production in HT-1080 cells, IC50 [9]: 100 nM
koff [7]: 0.017 s⁻¹
B2: 12A09 (VHH)
VHH: EVQLVESGGGLVQPGGSLRLSCAASGFTFSSYRMAWVRQAPGKGLEWVSSTSTGGEMTNYADSVKGRFTISRDNAKNTLHLQMNSLKPEDTALYYCAAGTSAGHWSTGGQGTQVTVSS
notes: as for B1

binding result (human IL-17A [1]): no binding
B3: 07B11 (VHH)
VHH: EVQLVESGGGLVQAGGSLRLSCVASGRAFSSYVMGWFRQAPGMEREFVALIRWSDGITGYVDSVKGRFTISRDNAKNTVYLQMNSLKPEDTAVYYCAAAVRPGDYDYWGQGTQVTVSS
notes: as for B1

binding result (human IL-17A [1]): no binding
B4: 24B08 (VHH)
VHH: EVQLVESGGGLVQAGGSLRLSCAVSGGTFSTYKMGWFRQAPGKEREIVARISTNGPTAYAEFVKGRFTVSRENTKNTVYLQMNSLNIEDTAVYYCAAGYDSLFAGYDYWGQGTQVTVSS
notes: as for B1

binding result (human IL-17A [1]): no binding
B5: 08B07 (VHH)
VHH: EVQLVESGGGLVQPGGSLRLSCAASGRDFRVKNVGWIRQAPGKQRELVATITVGGSTNYADSAKGRFTISRDNAKNTVYLQMSSLKPEDTAVYYCNAVATVTDYTGTYSDGFWGQGTQVTVSS
notes: as for B1

IC50 fold difference vs WT (human IL-17F [10]): 6.7 fold
B6: IL17MS3059 (VHH)
VHH: DVQLVESGGGLVQPGGSLRLSCAASGRTFSSYVVGWFRQAPGKEREFVGAISGSGESIYYAVSEKGRFTISRDNSKNTLYLQMNSLRPEDTAVYYCTADQEFGYLRFGRSEYWGQGTLVTVSS
notes: variant of IL17MS16A04; Kabat numbering

koff (human IL-17F [11]): 0.000459 s⁻¹
koff [12]: 0.00308 s⁻¹
B7: IL17MS3054 (VHH)
VHH: EVQLVESGGGLVQPGGSLRLSCAASGRTFSSYVVGWFRQAPGKEREFIGAISGSGDSIYYAVSEKDRFTISRDNSKNTLYLQMSSLRPEDTAVYYCTADQEFGYLRFGRSEYWGQGTLVTVSS
notes: as for B6

IC50 fold difference vs WT (human IL-17F [10]): 7.4 fold
B8: IL17MS3062 (VHH)
VHH: EVQLVESGGGLVQPGGSLRLSCAASGRTFSSYVVGWFRQAPGKEREFVGAISGSGESIYYAVSEKGRFTISRDNSKNTLYLQMNSLRPEDTAVYYCTADQEFGYLRFGRSEYWGQGTLVTVSS
notes: as for B6

IC50 fold difference vs WT (human IL-17F [10]): 12.7 fold
B9: IL17MS3065 (VHH)
VHH: DVQLVESGGGLVQPGGSLRLSCAASGRTFSSYVVGWFRQAPGKEREFIGAISGSGDTIYYAVSEKGRFTISRDNSKNTLYLQMNSLRPEDTAVYYCTADQEFGYLRFGRSEYWGQGTLVTVSS
notes: as for B6

IC50 fold difference vs WT (human IL-17F [10]): 30.3 fold
B10: IL17MS3064 (VHH)
VHH: DVQLVESGGGLVQPGGSLRLSCAASGRTFSSYVVGWFRQAPGKEREFVGAISGSGDTIYYAVSEKGRFTISRDNSKNTLYLQMNSLRPEDTAVYYCTADQEFGYLRFGRSEYWGQGTLVTVSS
notes: as for B6

binding result (human IL-17A [1]): no binding
B11: 07B09 (VHH)
VHH: EVQLVESGGGLVQAGGSLRLSCGASGGTFSSYATGWFRQAPGKEREFVAVLRWSDGHTAYADSVKGRFTISRDGAKNTMYLQMSSLKPEDTAIYYCTTATRPGEWDYWGQGTQVTVSS
notes: as for B1

binding result (human IL-17A [1]): no binding
B12: 24G10 (VHH)
VHH: EVQLVESGGGLVQAGGSLRLSCGAAGGTFSSYATGWFRQAPGKEREFVAVFRWSDSHTAYADSVKGRFTISRDGAKNTLYLQMSSLKPEDTAIYYCTTATRPGEWDYWGQGTQVTVSS
notes: as for B1

koff [13]: 0.000217 s⁻¹
koff (human IL-17A [14]): 0.00013 s⁻¹
IC50 (human IL-17A [15]): 0.184 nM
B13: IL17MS3010 (VHH, name in Kabat numbering)
VHH: EVQLVESGGGLVQPGGSQRLSCTASGTIVNIHVMGWYRQAPGKQRELVALIFSGGSADYADSVKGRFTISRDNSKNTVYLQMNSLRAEDTAVYYCAAEIGYYSGGTYYSSEAHWGQGTLVTVSS
notes: also called IL17MS3010 basic

koff [13]: 0.000242 s⁻¹
koff (human IL-17A [14]): 0.000144 s⁻¹
IC50 (human IL-17A [15]): 0.163 nM
B14: IL17MS3017 (VHH, name in Kabat numbering)
VHH: EVQLVESGGGLVQPGGSLRLSCAASGTIVNIHVMGWYRQAPGKQRELVALIFSGGSADYADSVKGRFTISRDNSKNTVYLQMNSLRPEDTAVYYCAAEIGYYSGGTYYSSEAHWGQGTLVTVSS
notes: basic + Q18L, T23A, A84P; Kabat positions

koff [13]: 0.000228 s⁻¹
koff (human IL-17A [14]): 0.000137 s⁻¹
IC50 (human IL-17A [15]): 0.101 nM
B15: IL17MS3012 (VHH, name in Kabat numbering)
VHH: EVQLVESGGGLVQPGGSQRLSCAASGTIVNIHVMGWYRQAPGKQRELVALIFSGGSADYADSVKGRFTISRDNSKNTVYLQMNSLRAEDTAVYYCAAEIGYYSGGTYYSSEAHWGQGTLVTVSS
notes: basic + T23A; Kabat positions

koff [13]: 0.000185 s⁻¹
koff (human IL-17A [14]): 0.000116 s⁻¹
IC50 (human IL-17A [15]): 0.081 nM
B16: IL17MS3013 (VHH, name in Kabat numbering)
VHH: EVQLVESGGGLVQPGGSQRLSCTASGTIVNIHVMGWYRQAPGKQRELVALIFSGGSADYADSVKGRFTISRDNSKNTVYLQMNSLRPEDTAVYYCAAEIGYYSGGTYYSSEAHWGQGTLVTVSS
notes: basic + A84P; Kabat positions

koff [13]: 0.000223 s⁻¹
koff (human IL-17A [14]): 0.000132 s⁻¹
IC50 (human IL-17A [15]): 0.139 nM
B17: IL17MS3011 (VHH, name in Kabat numbering)
VHH: EVQLVESGGGLVQPGGSLRLSCTASGTIVNIHVMGWYRQAPGKQRELVALIFSGGSADYADSVKGRFTISRDNSKNTVYLQMNSLRAEDTAVYYCAAEIGYYSGGTYYSSEAHWGQGTLVTVSS
notes: basic + Q18L; Kabat positions
